The values below come from FireProtDB (doi:10.1006/jmbi.2000.4053).

“And” between values parts separate entries of the source, which are not always exact repeats. Equal entries are not always repeated.

The conditions of this data set: Homo sapiens, pH 5, 25 °C, structure 1TEN.
The mark [1] stands for this setting: GdnHCl, Fluorescence, Sodium acetate 50mM, transition: 2.

With Tenascin, P24821 Y837A, for the setting “Urea, CD, Sodium acetate 50 mM”, the “ddG of mutation (higher = less stable)” value came to 4.22 kcal/mol, the denaturant m value came to 1.5 kcal/mol/M and the “denaturant midpoint (higher = more stable)” value (“denaturant midpoint” below) stood at 1.86 M.

Take Tenascin, P24821 Y858A: under setting [1], the “ddG of mutation (higher = less stable)” value was determined as 1.38 kcal/mol and the “denaturant midpoint” value is 1.3 M. Besides, under “Urea, CD, Sodium acetate 50 mM”, the “ddG of mutation (higher = less stable)” value was 1.38 kcal/mol, the denaturant m value was determined as 1.3 kcal/mol/M and the “denaturant midpoint” value stood at 4.19 M.

Tenascin, P24821 Y858G: under setting [1], the denaturant m value was found to be 4.19 kcal/mol/M and the “denaturant midpoint” value was 1.3 M. For the same substance, where the note is “Urea, CD, Sodium acetate 50 mM”, the “ddG of mutation (higher = less stable)” value was 4.14 kcal/mol and 2.76 kcal/mol; the denaturant m value stood at 1.3 kcal/mol/M; the “denaturant midpoint” value was 1.93 M.

Turning to Tenascin, P24821 Y869F, under setting [1], the “ddG of mutation (higher = less stable)” value was 3.13 kcal/mol, the denaturant m value was found to be 3.01 kcal/mol/M and the “denaturant midpoint” value turned out to be 1.3 M. Also, for the setting “Urea, CD, Sodium acetate 50 mM”, the “ddG of mutation (higher = less stable)” value worked out at 3.13 kcal/mol, the denaturant m value worked out at 1.3 kcal/mol/M and the “denaturant midpoint” value stood at 2.75 M.
